The source of these data is US20180016346A1 (Kyowa Kirin, published 2018).

Assay [1] deals with T1, human prostate specific membrane antigen (hPSMA), membrane form on cells (human, UniProt Q04609 1-750).
T1 construct: endogenous on LNCaP clone FGC cells; also called membrane hPSMA
Nature of the assay: flow cytometry on hPSMA/L929 cells (FIG. 2). Here is the method:
(§1) The cells were suspended in a staining buffer [PBS containing 0.1% NaN₃ and 1% FBS] at a concentration of 1×10⁶ cells/mL, and dispensed in a round-bottom 96-well plate (manufactured by Becton Dickinson) by 100 μL/well. After the centrifugation (2000 rpm, 4° C., 2 minutes), each antibody obtained in Example 7 was added to the pellet obtained by removing the supernatant, and suspended, and then left stand at ice temperature for 30 minutes.
(§2) After the further centrifugation (2000 rpm, 4° C., 2 minutes), the pellet obtained by removing the supernatant was washed twice with 200 μL/well of the staining buffer. Thereafter, 1 μg/mL of RPE fluorescently labeled mouse anti-human antibody (hinge region) clone 4E3 antibody (manufactured by Southern Bioblot) was added thereto by 50 μL/well and incubated at ice temperature for 30 minutes. After washing twice with the staining buffer, the cells were suspended in 200 μL/well of the staining buffer, and the fluorescence intensity of each cell was measured with the flow cytometer FACSCANTO II (manufactured by Becton Dickinson). The obtained results are illustrated in FIG. 2 and FIG. 3.
hPSMA/L929 cells were stained with anti-TRAILR2 monoclonal antibody E11 antibody, anti-hPSMA monoclonal antibody PI134 antibody, or hTRAILR2-hPSMA bispecific antibody E11-CH1-PI101VH antibody, E11-CH1-PN7VH antibody or E11-CH1-PN170VH antibody. The obtained results are illustrated in FIG. 2.
(In general: A flow cytometer gives signals particle by particle.)

Assay [2] deals with T2, human TRAILR2 (tumor necrosis factor-related apoptosis inducing ligand receptor 2) (human, UniProt O14763 56-440).
T2 construct: whole, on cells; The hTRAILR2/L929 cells are only cited from WO 2002/094880, and the construct expressed on them is not described here; On PC3 and LNCaP clone FGC cells the receptor is endogenous; also called hTRAILR2; death receptor 5
Nature of the assay: flow cytometry on hTRAILR2/L929 cells (FIG. 3). Here is the method:
as §1
as §2, with “3. […]” for “3.”

Assay [3] has as its target T1, human prostate specific membrane …. Nature of the assay: flow cytometry.

T1 sequence (Q04609 whole entry): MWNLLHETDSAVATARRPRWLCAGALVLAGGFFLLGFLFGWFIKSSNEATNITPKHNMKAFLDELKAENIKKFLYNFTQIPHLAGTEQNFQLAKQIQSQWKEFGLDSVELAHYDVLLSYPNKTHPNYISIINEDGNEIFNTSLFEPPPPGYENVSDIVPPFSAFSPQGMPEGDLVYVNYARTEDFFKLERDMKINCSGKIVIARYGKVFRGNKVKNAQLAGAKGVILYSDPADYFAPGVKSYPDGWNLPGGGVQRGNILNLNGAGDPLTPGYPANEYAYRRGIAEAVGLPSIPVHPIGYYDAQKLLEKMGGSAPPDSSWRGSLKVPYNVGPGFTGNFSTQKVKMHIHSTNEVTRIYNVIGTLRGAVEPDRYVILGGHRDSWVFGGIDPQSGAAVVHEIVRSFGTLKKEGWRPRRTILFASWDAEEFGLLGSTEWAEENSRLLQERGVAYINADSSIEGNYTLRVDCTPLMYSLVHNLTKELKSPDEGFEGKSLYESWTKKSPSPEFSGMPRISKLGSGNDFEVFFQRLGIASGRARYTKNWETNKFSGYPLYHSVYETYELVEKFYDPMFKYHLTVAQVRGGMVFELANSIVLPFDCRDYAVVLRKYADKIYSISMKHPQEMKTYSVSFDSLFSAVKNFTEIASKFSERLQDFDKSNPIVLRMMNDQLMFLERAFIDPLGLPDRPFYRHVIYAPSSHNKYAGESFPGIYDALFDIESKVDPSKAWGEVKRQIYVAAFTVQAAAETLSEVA

B1: anti-hPSMA monoclonal antibody PI134 antibody (antibody, human IgG1, V domains shown)
VH: QVQLVQSGAEVKKPGASVKVSCKASGYTFTTYDINWVRQATGQGLEWMGWMNPNNGYTGYAQKFQGRVTMTRNTSISTAYMELSSLRSEDTAVYYCARTNWVYWYFDLWGRGTLVTVSS
VL: EIVLTQSPATLSLSPGERATLSCRASQSVSSFLAWYQQKPGQAPRLLIYDASNRATGIPARFSGSGSGTDFTLTISSLEPEDFAVYYCQQRSNWPLTFGPGTKVDIKR
notes: Its VL is the same as that of the E11 antibody
Regarding B1, the figures for the binding result in assay [1] and in assay [2] were “binds” and “no binding”, respectively.

B2: hTRAILR2-hPSMA bispecific antibody fragment E11-CH1-PN7VH F(ab′)2 (bispecific antibody)
heavy: QLQLQESGPGLVKPSETLSLTCTVSGGSIISKSSYWGWIRQPPGKGLEWIGSIYYSGSTFYNPSLKSRVTISVDTSKNQFSLKLSSVTAADTAVYYCARLTVAEFDYWGQGTLVTVSSASTKGPSVFPLAPCSRSTSESTAALGCLVKDYFPEPVTVSWNSGALTSGVHTFPAVLQSSGLYSLSSVVTVPSSSLGTKTYTCNVDHKPSNTKVDKRVEVQLVQSGAEVKKPGASVKVSCKASGYTFTTYDINWVRQATGQGLEWMGWMNPNSGYTGYAQKFQGRVTMTRDTSISTAYMELSSLRSEDTAVYYCARTNWESWYFDLWGRGTLVTVSSASTKGPSVFPLAPCSRSTSESTAALGCLVKDYFPEPVTVSWNSGALTSGVHTFPAVLQSSGLYSLSSVVTVPSSSLGTKTYTCNVDHKPSNTKVDKRVESKYGPPCPPCPDYKDDDDKHHHHHH
VL: EIVLTQSPATLSLSPGERATLSCRASQSVSSFLAWYQQKPGQAPRLLIYDASNRATGIPARFSGSGSGTDFTLTISSLEPEDFAVYYCQQRSNWPLTFGPGTKVDIKR
notes: CH2 and CH3 are deleted; The heavy chain carries a C-terminal FLAG-tag and His-tag and dimerises through cysteine in the hinge region; All light chains carry E11 VL
Turning to B2, the binding result in assay [3] is reported as “binds”.

B3: hTRAILR2-hPSMA bispecific antibody E11-GL-PI134VH antibody (bispecific antibody, IgG4)
heavy: not shown
VL: EIVLTQSPATLSLSPGERATLSCRASQSVSSFLAWYQQKPGQAPRLLIYDASNRATGIPARFSGSGSGTDFTLTISSLEPEDFAVYYCQQRSNWPLTFGPGTKVDIKR
notes: domain: constant region; All four light chains carry E11 VL; also called E11-GL-PI1134VH
Regarding B3, the binding result in assay [1] was “binds”.

B4: hTRAILR2-hPSMA heterobispecific antibody E11_PN7 Hetero antibody (bispecific antibody, human IgG1)
heavy 1: not shown
heavy 2: not shown
VL: EIVLTQSPATLSLSPGERATLSCRASQSVSSFLAWYQQKPGQAPRLLIYDASNRATGIPARFSGSGSGTDFTLTISSLEPEDFAVYYCQQRSNWPLTFGPGTKVDIKR
notes: also called hE11_PN7 Hetero antibody
Regarding B4, the binding result in assay [3] is reported as “binds”.

B5: hTRAILR2-hPSMA bispecific antibody fragment E11-CH1-PN7VH Fab (bispecific antibody)
heavy: QLQLQESGPGLVKPSETLSLTCTVSGGSIISKSSYWGWIRQPPGKGLEWIGSIYYSGSTFYNPSLKSRVTISVDTSKNQFSLKLSSVTAADTAVYYCARLTVAEFDYWGQGTLVTVSSASTKGPSVFPLAPCSRSTSESTAALGCLVKDYFPEPVTVSWNSGALTSGVHTFPAVLQSSGLYSLSSVVTVPSSSLGTKTYTCNVDHKPSNTKVDKRVEVQLVQSGAEVKKPGASVKVSCKASGYTFTTYDINWVRQATGQGLEWMGWMNPNSGYTGYAQKFQGRVTMTRDTSISTAYMELSSLRSEDTAVYYCARTNWESWYFDLWGRGTLVTVSSASTKGPSVFPLAPCSRSTSESTAALGCLVKDYFPEPVTVSWNSGALTSGVHTFPAVLQSSGLYSLSSVVTVPSSSLGTKTYTCNVDHKPSNTKVDKRVDYKDDDDKHHHHHH
VL: EIVLTQSPATLSLSPGERATLSCRASQSVSSFLAWYQQKPGQAPRLLIYDASNRATGIPARFSGSGSGTDFTLTISSLEPEDFAVYYCQQRSNWPLTFGPGTKVDIKR
notes: The hinge region is deleted from E11-CH1-PN7VH F(ab′)2; The light chains carry E11 VL, as in the F(ab′)2
As for B5, the binding result in assay [3] is recorded as “binds”.

B6: hTRAILR2-hPSMA bispecific antibody E11-CH1-PN170VH antibody (bispecific antibody, IgG4)
heavy: not shown
VL: EIVLTQSPATLSLSPGERATLSCRASQSVSSFLAWYQQKPGQAPRLLIYDASNRATGIPARFSGSGSGTDFTLTISSLEPEDFAVYYCQQRSNWPLTFGPGTKVDIKR
notes: domain: constant region; The heavy chain is E11 VH, an IgG4 CH1 linker and PN170 VH, followed by the constant region of the vector; All four light chains carry E11 VL
Regarding B6, in assay [1], the binding result is “binds”.

B7: hTRAILR2-hPSMA bispecific antibody E11-CH1-PI101VH antibody (bispecific antibody, IgG4)
heavy: not shown
VL: EIVLTQSPATLSLSPGERATLSCRASQSVSSFLAWYQQKPGQAPRLLIYDASNRATGIPARFSGSGSGTDFTLTISSLEPEDFAVYYCQQRSNWPLTFGPGTKVDIKR
notes: domain: constant region; The heavy chain is E11 VH, an IgG4 CH1 linker and PI101 VH, followed by the constant region of the vector; All four light chains carry E11 VL
Turning to B7, in assay [1], the binding result is on record as “binds”.
